The values that follow come from patent US20110129459A1 (Chugai, published 2011).

Broadly, the Kd is the equilibrium constant for the complex coming apart. The koff is the first-order rate constant of dissociation. The term kon denotes a measure of how fast the partners come together.

T1: rhNR10 (recombinant human NR10) (human, UniProt Q8NI17 20-519, limits assumed)
T1 construct: also called IL-31 receptor; IL31RA
T1 sequence: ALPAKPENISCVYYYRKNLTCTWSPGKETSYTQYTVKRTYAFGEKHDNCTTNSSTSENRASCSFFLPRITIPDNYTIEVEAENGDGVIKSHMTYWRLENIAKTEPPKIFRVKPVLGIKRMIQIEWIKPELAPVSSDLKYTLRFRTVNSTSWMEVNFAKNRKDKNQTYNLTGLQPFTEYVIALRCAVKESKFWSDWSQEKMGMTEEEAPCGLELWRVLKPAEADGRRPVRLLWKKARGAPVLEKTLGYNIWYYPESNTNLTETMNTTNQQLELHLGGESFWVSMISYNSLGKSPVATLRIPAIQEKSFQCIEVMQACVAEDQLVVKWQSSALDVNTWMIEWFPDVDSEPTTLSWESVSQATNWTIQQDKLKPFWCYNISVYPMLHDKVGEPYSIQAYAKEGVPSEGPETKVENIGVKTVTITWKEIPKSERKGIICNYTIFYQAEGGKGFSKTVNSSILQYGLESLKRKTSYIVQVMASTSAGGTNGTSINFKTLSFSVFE

T2: cytoplasmic domain-lacking human NR10 on CHO cells (hNR10-expressing CHO cells) (human, UniProt Q8NI17 20-553)
T2 construct: also called NR10-expressing cells
T2 sequence: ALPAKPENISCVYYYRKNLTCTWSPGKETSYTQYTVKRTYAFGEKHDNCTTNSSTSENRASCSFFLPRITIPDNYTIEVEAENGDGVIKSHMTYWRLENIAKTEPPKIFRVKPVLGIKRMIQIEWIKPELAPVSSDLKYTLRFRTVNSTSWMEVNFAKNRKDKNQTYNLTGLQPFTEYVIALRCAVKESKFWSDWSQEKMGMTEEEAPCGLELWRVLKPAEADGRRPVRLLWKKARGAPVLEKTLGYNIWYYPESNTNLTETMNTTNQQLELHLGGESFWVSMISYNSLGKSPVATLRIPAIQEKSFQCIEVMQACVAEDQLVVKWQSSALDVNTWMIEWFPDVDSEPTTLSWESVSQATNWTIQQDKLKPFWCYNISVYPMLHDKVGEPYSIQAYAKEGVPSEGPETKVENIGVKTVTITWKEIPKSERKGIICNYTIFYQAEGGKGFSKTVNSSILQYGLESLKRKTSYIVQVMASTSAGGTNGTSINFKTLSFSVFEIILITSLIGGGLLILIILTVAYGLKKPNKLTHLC

B1: H0La328 (H0-SKSC / La328) (antibody, V domains shown)
VH: QVQLVQSGAEVKKPGASVKVSCKASGYTFTGYIMNWVRQAPGQGLEWMGLINPYNGGTSYNQKFKGRVTITADESTSTAYMELSSLRSEDTAVYYCARDGYDDGPYTMDYWGQGTLVTVSS
VL: DIQMTQSPSSLSASVGDRVTITCRTSENIYSFLAWYQQKPGKAPKLLIYNAKTLAKGVPSRFSGSGSGTDFTLTISSLQPEDFATYYCQHHYEDPLTFGGGTKVEIKR
B2: Ha101L0 (Ha101-SKSC / L0) (antibody, V domains shown)
VH: QVQLVQSGAEVKKPGASVKVSCKASGYTFTGYVMNWVRQAPGQGLEWMGLINPYNGGTSYNQKFKGRVTITADESTSTAYMELSSLRSEDTAVYYCARDGYDDGPYTMDYWGQGTLVTVSS
VL: DIQMTQSPSSLSASVGDRVTITCRTSENIYSFLAWYQQKPGKAPKLLIYNAKTLAKGVPSRFSGSGSGTDFTLTISSLQPEDFATYYCQHHYESPLTFGGGTKVEIKR
B3: Ha111L0 (Ha111-SKSC / L0) (antibody, V domains shown)
VH: QVQLVQSGAEVKKPGASVKVSCKASGYTFTGYILNWVRQAPGQGLEWMGLINPYNGGTSYNQKFKGRVTITADESTSTAYMELSSLRSEDTAVYYCARDGYDDGPYTMDYWGQGTLVTVSS
VL: DIQMTQSPSSLSASVGDRVTITCRTSENIYSFLAWYQQKPGKAPKLLIYNAKTLAKGVPSRFSGSGSGTDFTLTISSLQPEDFATYYCQHHYESPLTFGGGTKVEIKR
B4: Ha219L0 (Ha219-SKSC / L0) (antibody, V domains shown)
VH: QVQLVQSGAEVKKPGASVKVSCKASGYTFTGYIMNWVRQAPGQGLEWMGLINPYNGGTSYNPKFKGRVTITADESTSTAYMELSSLRSEDTAVYYCARDGYDDGPYTMDYWGQGTLVTVSS
VL: DIQMTQSPSSLSASVGDRVTITCRTSENIYSFLAWYQQKPGKAPKLLIYNAKTLAKGVPSRFSGSGSGTDFTLTISSLQPEDFATYYCQHHYESPLTFGGGTKVEIKR
B5: Ha204L0 (Ha204-SKSC / L0) (antibody, V domains shown)
VH: QVQLVQSGAEVKKPGASVKVSCKASGYTFTGYIMNWVRQAPGQGLEWMGLINPYNGGTDYNQKFKGRVTITADESTSTAYMELSSLRSEDTAVYYCARDGYDDGPYTMDYWGQGTLVTVSS
VL: DIQMTQSPSSLSASVGDRVTITCRTSENIYSFLAWYQQKPGKAPKLLIYNAKTLAKGVPSRFSGSGSGTDFTLTISSLQPEDFATYYCQHHYESPLTFGGGTKVEIKR
B6: Ha103L0 (Ha103-SKSC / L0) (antibody, V domains shown)
VH: QVQLVQSGAEVKKPGASVKVSCKASGYTFTGYIINWVRQAPGQGLEWMGLINPYNGGTSYNQKFKGRVTITADESTSTAYMELSSLRSEDTAVYYCARDGYDDGPYTMDYWGQGTLVTVSS
VL: DIQMTQSPSSLSASVGDRVTITCRTSENIYSFLAWYQQKPGKAPKLLIYNAKTLAKGVPSRFSGSGSGTDFTLTISSLQPEDFATYYCQHHYESPLTFGGGTKVEIKR
B7: Hp1 variant of H0L0 (antibody, V domains shown)
VH: QVQLVQSGAEVKKPGASVKVSCKASGYTFTGYIMNWVRQAPGQGLEWMGLINPYNGGTSYNQKFQGRVTITADESTSTAYMELSSLRSEDTAVYYCARDGYDDGPYTMDYWGQGTLVTVSS
VL: DIQMTQSPSSLSASVGDRVTITCRTSENIYSFLAWYQQKPGKAPKLLIYNAKTLAKGVPSRFSGSGSGTDFTLTISSLQPEDFATYYCQHHYESPLTFGGGTKVEIK
B8: Hp6 variant of H0L0 (antibody, V domains shown)
VH: QVQLVQSGAEVKKPGASVKVSCKASGYTFTGYIMNWVRQAPGQGLEWMGLINPYNGGTSYNDKFKGRVTITADESTSTAYMELSSLRSEDTAVYYCARDGYDDGPYTMDYWGQGTLVTVSS
VL: DIQMTQSPSSLSASVGDRVTITCRTSENIYSFLAWYQQKPGKAPKLLIYNAKTLAKGVPSRFSGSGSGTDFTLTISSLQPEDFATYYCQHHYESPLTFGGGTKVEIK
B9: Lp6 variant of H0L0 (antibody, V domains shown)
VH: QVQLVQSGAEVKKPGASVKVSCKASGYTFTGYIMNWVRQAPGQGLEWMGLINPYNGGTSYNQKFKGRVTITADESTSTAYMELSSLRSEDTAVYYCARDGYDDGPYTMDYWGQGTLVTVSS
VL: DIQMTQSPSSLSASVGDRVTITCRTSENIYSFLAWYQQKPGKAPKLLIYNAKTLADGVPSRFSGSGSGTDFTLTISSLQPEDFATYYCQHHYESPLTFGGGTKVEIKR
notes: copies: 2 + 2
B10: Hp5 variant of H0L0 (antibody, V domains shown)
VH: QVQLVQSGAEVKKPGASVKVSCKASGYTFTGYIMNWVQQSPGQGLEWMGLINPYNGGTSYNQKFKGRVTITADESTSTAYMELSSLRSEDTAVYYCARDGYDDGPYTMDYWGQGTLVTVSS
VL: DIQMTQSPSSLSASVGDRVTITCRTSENIYSFLAWYQQKPGKAPKLLIYNAKTLAKGVPSRFSGSGSGTDFTLTISSLQPEDFATYYCQHHYESPLTFGGGTKVEIK
B11: Lp5 variant of H0L0 (antibody, V domains shown)
VH: QVQLVQSGAEVKKPGASVKVSCKASGYTFTGYIMNWVRQAPGQGLEWMGLINPYNGGTSYNQKFKGRVTITADESTSTAYMELSSLRSEDTAVYYCARDGYDDGPYTMDYWGQGTLVTVSS
VL: DIQMTQSPSSLSASVGDRVTITCRTSENIYSFLAWYQQKPGKAPKLLIYNAKTLAQGVPSRFSGSGSGTDFTLTISSLQPEDFATYYCQHHYESPLTFGGGTKVEIKR
notes: copies: 2 + 2
B12: Hp7 variant of H0L0 (antibody, V domains shown)
VH: QVQLVQSGAEVKKPGASVKVSCKASGYTFTGYIMNWVRQAPGQGLEWMGEINPYNGGTSYNQKFKGRVTITADESTSTAYMELSSLRSEDTAVYYCARDGYDDGPYTMDYWGQGTLVTVSS
VL: DIQMTQSPSSLSASVGDRVTITCRTSENIYSFLAWYQQKPGKAPKLLIYNAKTLAKGVPSRFSGSGSGTDFTLTISSLQPEDFATYYCQHHYESPLTFGGGTKVEIK

One assay deals with T1, rhNR10 (recombinant human NR10). The assay is described as follows: SPR, Biacore T100; antibody captured on Protein A, rhNR10 as analyte. The method, then:
Kinetic analysis of the antigen-antibody reaction was carried out using Biacore T100 (GE Healthcare Biosciences). The antigen-antibody interaction was measured by immobilizing rec-Protein A (hereinafter Protein A) (ZYMED) onto a sensor chip, capturing an antibody on the immobilized Protein A, and then reacting the antigen as an analyte. Various concentrations of rhNR10 were used as the antigen. The kinetic parameters, association rate constant kₐ (1/Ms) and dissociation rate constant kd (1/s), were calculated from the sensorgrams obtained by the measurement. Then, KD (M) was determined based on the rate constants. Each parameter was determined using Biacore T100 Evaluation Software version 1.1 (GE Healthcare Biosciences).
The running buffer used was HBS-EP+. Each antibody was prepared at 0.25 μg/ml, or prepared so that about 100 RU would bind to Protein A. rhNR10 used as an analyte was prepared at 0, 38.5, 77.0, and 154 nM, or at 0, 19.25, and 77.01 nM using HBS-EP+. In the measurement, first, the antibody solution was captured on Protein A, and an analyte solution was reacted at a flow rate of 20 μL/min for three minutes. Then, the solution was switched to HBS-EP+, and the dissociation phase was measured for five minutes. After measurement of the dissociation phase, the sensor chip was regenerated by washing with 10 mM glycine-HCl (pH 1.5). The obtained sensorgrams were kinetically analyzed using the Biacore-specific data analysis software, Biacore T100 Evaluation Software Version 1.1.
(In SPR one partner is held on a chip, and binding of the other changes the refractive index at the surface.)
Take B1: the Kd was 2.9 nM, the koff is 0.00052 s⁻¹ and the kon worked out at 180000 M⁻¹ s⁻¹.

Take B2: the Kd stood at 1.5 nM, the koff was 0.00031 s⁻¹ and the kon amounted to 200000 M⁻¹ s⁻¹.

In the case of B3, the Kd amounted to 2.1 nM, the koff stood at 0.00056 s⁻¹ and the kon was 260000 M⁻¹ s⁻¹.

Regarding B4, the Kd amounted to 3 nM, the koff was 0.00096 s⁻¹ and the kon is 320000 M⁻¹ s⁻¹.

B5: the Kd amounted to 1.3 nM, the koff worked out at 0.00048 s⁻¹ and the kon was found to be 370000 M⁻¹ s⁻¹.

For B6, the Kd worked out at 2.4 nM, the koff was determined as 0.00053 s⁻¹ and the kon stood at 220000 M⁻¹ s⁻¹.

The target of the next assay is T2, cytoplasmic domain-lacking human NR10 …. The assay is described as follows: FMAT competition on hNR10-expressing CHO cells: antibody titrated against FMAT Blue-labeled hIL-31; FL1 = cell-bound labeled hIL-31; mean±S.D. (n=3). The method, then: Antibodies were assessed for the activity of inhibiting the IL-31/NR10 binding by using hNR10-expressing CHO cells as described below. The chimeric NS22 antibody and NS22_H0L0 (H chain, H0-SKSC/SEQ ID NO: 54; L chain, L0/SEQ ID NO: 56) were diluted at an appropriate concentration using Assay buffer (10 mM HEPES, 140 mM NaCl, 2.5 mM CaCl₂, 3 mM MgCl₂, 2% FBS, 0.01% NaN₃, pH7.4), and further eight serial dilutions were prepared at a common dilution ration of 2. The dilutions were added at 40 μl/well to plates (96-Well FMAT Plates, Applied Biosystems). Then, FMAT Blue-labeled hIL-31 was diluted 400 times with Assay buffer, and added at 20 μl/well. Finally, a cell suspension adjusted to 2.5×10⁵ cells/ml using Assay buffer was added at 40 μl/well (final 1×10⁴ cells/well). Two hours after addition of cells, the fluorescence (FL1) was measured using the 8200 Cellular Detection System (Applied Biosystems).
Each variant was tested for the activity of inhibiting the hIL-31/hNR10 binding by using FMAT. The test was carried out according to the method as described in Example 4.
For the molecule B7, the binding result is given as “binds”.

Turning to B8, the “IC50 (read off the curve)” value is about 0.1 µg/mL.

As for B9, the binding result is recorded as “binds”.

For B10, the binding result was “binds”.

Regarding B11, the binding result is reported as “binds”.

Regarding B12, the binding result is reported as “binds”.
